For this assay, the target named is 新冠病毒SARS-CoV-2原始毒株(WT)S1抗原 (SARS-CoV-2, UniProt P0DTC2 16-685).

Broadly, the Kd is the concentration at which binding is half-saturated.

B1: 中和抗体YB9-258 (antibody, V domains shown)
VH: EVQLVESGGGLIQPGGSLRLSCAASGLTVSSNYMHWVRQAPGKGLEWVSVLYAGGSAFYADSVKGRFTISRNNSKNTLYLQMNSLRAEDTAIYYCARGLGDYLDSWGQGTLVTVSS
VL: DIQMTQSPSSVSASVGDRVTITCRASQGIGSWLAWYQQKPGKAPQLLIYAASTLQSGVPPRFSGSGSGTDFTLTITSLQPEDFASYYCQQANSVLALTFGGGTKVEIK
With B1, binding was characterised by a dissociation constant (Kd) of 71.7 pM.

B2: 中和抗体YB13-208 (antibody, V domains shown)
V domain 1: QITLKESGPTLVKPTQTLTLTCTFSGLSLSTSGVSVGWIRQPPGKAPEWLALIYWDDDKRYSPSLTSRLSITKDTSKNQVVLTMTNMDPVDTATYYCAHPRYYGDSSGYYWIWGQGTMVTVSS
V domain 2: SYELTQPPSVSVSPGQTARITCSGDALPKQYAYWYQQKPGQAPVVVMYKTSERPSGIPERFSGSSSGTTVTLTISGVQAEDEADYYCQSADSSGFYVFGTGTQVTVL
Molecule B2 gave an equilibrium dissociation constant (Kd) of 82 pM.
